# Source: US20120178701A1
# Bridge positions count the residues as written; N and C are the ends. Square brackets hold non-standard residues; d marks the D form. Primed or numbered codes have the meaning given here. * marks the point of attachment. Dap(betaPro) = diaminopropionic acid with a beta-prolyl group on the side-chain amine; Cyclopentylacetyl′ = not defined here; Cyclohexylacetyl = O=C(CC1CCCCC1)*; Orn = NCCC[C@H](N)C(=O)O; Dab = NCC[C@H](N)C(=O)O; Sar = CNCC(=O)O
# Target: human recombinant melanocortin-4 receptor (human) (UniProt P32245)
# Assay: cell-based or functional assay
# Settings: not given
# human recombinant melanocortin-4 receptor (human), sequence (P32245 whole entry): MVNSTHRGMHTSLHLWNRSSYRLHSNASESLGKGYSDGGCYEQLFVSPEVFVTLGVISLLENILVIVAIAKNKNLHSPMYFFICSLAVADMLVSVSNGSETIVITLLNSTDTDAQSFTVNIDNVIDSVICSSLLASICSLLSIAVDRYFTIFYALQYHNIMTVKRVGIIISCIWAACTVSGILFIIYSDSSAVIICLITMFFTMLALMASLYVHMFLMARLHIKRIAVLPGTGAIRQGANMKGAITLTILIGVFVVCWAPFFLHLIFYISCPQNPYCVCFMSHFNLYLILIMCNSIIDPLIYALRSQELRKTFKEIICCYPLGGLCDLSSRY
EC50 (cAMP),intrinsic activity (cAMP; NDP-α-MSH = 100%),Binder
0.06 nM,98%,RXXFRWX (N-acetyl; X2 = hGlu; X3 = Dab; D-Phe 4; X7 = Dab; side-chain lactam hGlu2-Dab7; C-terminal amide) [Ac-Arg-cyclo(hGlu-Dab-D-Phe-Arg-Trp-Dab)-NH2]
0.065 nM,96%,RXXFRWX (N-acetyl; X2 = Dab; X3 = Dab; D-Phe 4; X7 = hGlu; side-chain lactam Dab2-hGlu7; C-terminal amide) [Ac-Arg-cyclo(Dab-Dab-D-Phe-Arg-Trp-hGlu)-NH2]

# Target: T1, human recombinant melanocortin-4 receptor (human), P32245
# Assay: competitive inhibition of Eu-NDP-α-MSH (TRF), hMC4-R HEK-293 membranes
# Settings: remark: other sources report otherwise
# T1 sequence (P32245 whole entry): as above
row,Ki,Binder
1,145 nM,Ac-RD[Dap(betaPro)][dF]RWK-NH2 (lactam 2-7) [Ac-Arg-cyclo(Asp-Dap(betaPro)-D-Ph-Arg-Trp-Lys)-NH2]
2,7 nM,Ac-RD[Orn][dF]RWK-NH2 (lactam 2-7) [Ac-Arg-cyclo(Asp-Orn-D-Phe-Arg-Trp-Lys)-NH2]
3,80 nM,"RDXFRWK (HELM PEPTIDE1{[ac].R.D.[NC[C@H](N[*:1])C(=O)[*:2]].[dF].R.W.K.[am]}$PEPTIDE1,PEPTIDE1,3:R3-8:R3$$$V2.0; SMILES CC(=O)N[C@@H](CCCNC(=N)N)C(=O)N[C@H]1CC(=O)NCCCC[C@@H](C(N)=O)NC(=O)[C@H](Cc2c[nH]c3ccccc23)NC(=O)[C@H](CCCNC(=N)N)NC(=O)[C@@H](Cc2ccccc2)NC(=O)[C@H](CN)NC1=O) [Ac-Arg-cyclo(Asp-Dap-D-Phe-Arg-Trp-Lys)-NH2]"
4,88 nM,"RDXFRWK (HELM PEPTIDE1{[ac].R.D.[Dab].[dF].R.W.K.[am]}|PEPTIDE2{[ac]}$PEPTIDE1,PEPTIDE2,4:R3-1:R2|PEPTIDE1,PEPTIDE1,3:R3-8:R3$$$V2.0; SMILES CC(=O)NCC[C@@H]1NC(=O)[C@@H](NC(=O)[C@H](CCCNC(=N)N)NC(C)=O)CC(=O)NCCCC[C@@H](C(N)=O)NC(=O)[C@H](Cc2c[nH]c3ccccc23)NC(=O)[C@H](CCCNC(=N)N)NC(=O)[C@@H](Cc2ccccc2)NC1=O) [Ac-Arg-cyclo(Asp-Dab(Acetyl)-D-Phe-Arg-Trp-Lys)-NH2]"
5,110 nM,Ac-RD[Dab](Gly)[dF]RWK-NH2 (lactam 2-7) [Ac-Arg-cyclo(Asp-Dab(Glycly)-D-Phe-Arg-Trp-Lys)-NH2]

# Target: human recombinant melanocortin-4 receptor (human) (UniProt P32245)
# Assay: as above
# Settings: not given
row,Ki,Binder
1,2 nM,RXXFRWX (N-acetyl; X2 = hGlu; X3 = Dab; D-Phe 4; X7 = Dab; side-chain lactam hGlu2-Dab7; C-terminal amide) [Ac-Arg-cyclo(hGlu-Dab-D-Phe-Arg-Trp-Dab)-NH2]
2,4 nM,RXXFRWX (N-acetyl; X2 = Dab; X3 = Dab; D-Phe 4; X7 = hGlu; side-chain lactam Dab2-hGlu7; C-terminal amide) [Ac-Arg-cyclo(Dab-Dab-D-Phe-Arg-Trp-hGlu)-NH2]

# Target: human recombinant melanocortin-4 receptor (human) (UniProt P32245)
# Assay: competitive inhibition of [I125]-NDP-α-MSH, hMC4-R HEK-293 membranes
# Settings: not given
row,Ki,Binder
1,45 nM,RXXFRWX (N-acetyl; X2 = hGlu; X3 = Dab; D-Phe 4; X7 = Dab; side-chain lactam hGlu2-Dab7; C-terminal free acid (-OH)) [Ac-Arg-cyclo(hGlu-Dab-D-Phe-Arg-Trp-Dab)-OH]
2,35 nM,RXXFRWX (N-acetyl; X2 = Dab; X3 = Dab; D-Phe 4; X7 = hGlu; side-chain lactam Dab2-hGlu7; C-terminal free acid (-OH)) [Ac-Arg-cyclo(Dab-Dab-D-Phe-Arg-Trp-hGlu)-OH]

# Target: T1, human recombinant melanocortin-4 …
# Assay: as above
# Settings: remark: other sources report otherwise
row,Binder,Ki
1,"RDXFRWK (HELM PEPTIDE1{[ac].R.D.[Dab].[dF].R.W.K.[am]}|PEPTIDE2{[ac]}$PEPTIDE1,PEPTIDE2,4:R3-1:R2|PEPTIDE1,PEPTIDE1,3:R3-8:R3$$$V2.0; SMILES CC(=O)NCC[C@@H]1NC(=O)[C@@H](NC(=O)[C@H](CCCNC(=N)N)NC(C)=O)CC(=O)NCCCC[C@@H](C(N)=O)NC(=O)[C@H](Cc2c[nH]c3ccccc23)NC(=O)[C@H](CCCNC(=N)N)NC(=O)[C@@H](Cc2ccccc2)NC1=O) [Ac-Arg-cyclo(Asp-Dab(Acetyl)-D-Phe-Arg-Trp-Lys)-NH2]",33 nM
2,Ac-RD[Orn](Ac)[dF]RWK-NH2 (lactam 2-7) [Ac-Arg-cyclo(Asp-Orn(Acetyl)-D-Phe-Arg-Trp-Lys)-NH2],573 nM
3,"RDXFRWK (HELM PEPTIDE1{[ac].R.D.[Dab].[dF].R.W.K.[C1CC1N[*:1]]}$PEPTIDE1,PEPTIDE1,3:R3-8:R3$$$V2.0; SMILES CC(=O)N[C@@H](CCCNC(=N)N)C(=O)N[C@H]1CC(=O)NCCCC[C@@H](C(=O)NC2CC2)NC(=O)[C@H](Cc2c[nH]c3ccccc23)NC(=O)[C@H](CCCNC(=N)N)NC(=O)[C@@H](Cc2ccccc2)NC(=O)[C@H](CCN)NC1=O) [Ac-Arg-cyclo(Asp-Dab-D-Phe-Arg-Trp-Lys)-NH-cyclopropyl]",3 nM

# Further lines, results first:
row,Ki,Binder
1,15 nM,Ac-RD[Sar][dF]RWK-NH2 (lactam 2-7) [Ac-Arg-cyclo(Asp-Sar-D-Phe-Arg-Trp-Lys)-NH2]
2,1 nM,Cyclohexylacetyl-RD[Dab][dF]RWK-NH2 (lactam 2-7) [Cyclohexylacetyl-Arg-cyclo(Asp-Dab-D-Phe-Arg-Trp-Lys)-NH2]
3,0.8 nM,{Cyclopentylacetyl′}-RD[Dab][dF]RWK-NH2 (lactam 2-7) [Cyclopentylacetyl-Arg-cyclo(Asp-Dab-D-Phe-Arg-Trp-Lys)-NH2]
4,2 nM,Phenylacetyl-RD[Dab][dF]RWK-NH2 (lactam 2-7) [Phenylacetyl-Arg-cyclo(Asp-Dab-D-Phe-Arg-Trp-Lys)-NH2]
5,0.4 nM,Cyclohexanoyl-RD[Dab][dF]RWK-NH2 (lactam 2-7) [Cyclohexanoyl-Arg-cyclo(Asp-Dab-D-Phe-Arg-Trp-Lys)-NH2]
